These results are taken from PMC3913756, “Mycobacterium tuberculosis Cyclophilin A Uses Novel Signal Sequence for Secretion and Mimics Eukaryotic Cyclophilins for Interaction with Host Protein Repertoire” (PLoS ONE, 2014).

The target of this assay is T1, His6-tagged M. tuberculosis PpiA (cyclophilin A) (Mycobacterium tuberculosis H37Rv, UniProt P9WHW3 1-182).
T1 construct: also called Rv0009; MTBPPIA
Kind of assay: native gel or EMSA. The settings on record: both partners purified. (In general: A gel shift assay detects complexes by their altered migration in electrophoresis.)

B1: purified M. tuberculosis Ef-Tu (Tuf) (natural protein)
chain: not shown
As to B1, the binding result is “binds”.
